The target of test [1] is T1, PcrV protein (Pseudomonas aeruginosa type III secretion system protein) (Pseudomonas aeruginosa).
T1 construct: The ELISA used 'synthetic PcrV' as plate coat; Biacore and BLI used 'PcrV protein' in solution; also called synthetic PcrV; Full-length PcrV
Nature of the test: ELISA on plate-coated synthetic PcrV, detection with goat anti-human Fc-AP and pNPP, OD410. As to the method:
STS7B15925, STS7B1H9 and STS7B112 were further optimized by introducing variants in the VH, VL, and/or Fc, giving rise to STS7B15925M, STS7B15921M, STS7B1H9M, STS7B1H924M, STS7B112M, and STS7B11201M. For the ELISA experiment, synthetic PcrV or PAO1 was used to coat the wells of a 96-well plate. On the following day, after washing with PBST, blocking with 200 μL PBS-milk for an hour, and another wash with PBST, the respective antibodies were added and incubated for an hour at 37° C. The plate was washed with 0.1% TBST 6 times before 100 μL of Goat-anti-human Fc antibody-AP (1:3000 in PBS) was added to each well and incubated for an hour. After washing with 0.1% TBST for 6 times, 50 μL of pNPP (p-nitrophenyl phosphate) was added to each well and color was developed for […] at 37 C. Subsequently, the colorimetric signals were read by a microplate reader at 410 nm. The ELISA results (OD410) were analyzed and the EC50 values were calculated.
For orientation: An ELISA detects its analyte on a solid surface through an enzyme-linked reagent.

Test [2] concerns the target T1, PcrV protein (Pseudomonas aeruginosa …). As to the kind of experiment: SPR (BIACORE T200), 25 C; antibody captured on CM5 chip, serial dilutions of PcrV protein injected. As to the method: Binding affinity (Kd) of selected bispecific antibodies with respect to PcrV at 25° C. was determined using a real-time biosensor surface plasmon resonance assay (BIACORE™ T200). Briefly, the antibody was first captured on a CM5 chip to form an antibody surface. Serial dilutions of PcrV protein were injected over the antibody surface. Binding of antigen to antibody and dissociation of the bound complex were monitored in real time. Equilibrium dissociation constants (Kd) and dissociation rate constants were ascertained by performing kinetic analysis using BIA evaluation software.
For orientation: In SPR one partner is held on a chip, and binding of the other changes the refractive index at the surface.

B1: anti-PcrV/anti-Psl bispecific antibody STS7B15925M (bispecific antibody)
heavy: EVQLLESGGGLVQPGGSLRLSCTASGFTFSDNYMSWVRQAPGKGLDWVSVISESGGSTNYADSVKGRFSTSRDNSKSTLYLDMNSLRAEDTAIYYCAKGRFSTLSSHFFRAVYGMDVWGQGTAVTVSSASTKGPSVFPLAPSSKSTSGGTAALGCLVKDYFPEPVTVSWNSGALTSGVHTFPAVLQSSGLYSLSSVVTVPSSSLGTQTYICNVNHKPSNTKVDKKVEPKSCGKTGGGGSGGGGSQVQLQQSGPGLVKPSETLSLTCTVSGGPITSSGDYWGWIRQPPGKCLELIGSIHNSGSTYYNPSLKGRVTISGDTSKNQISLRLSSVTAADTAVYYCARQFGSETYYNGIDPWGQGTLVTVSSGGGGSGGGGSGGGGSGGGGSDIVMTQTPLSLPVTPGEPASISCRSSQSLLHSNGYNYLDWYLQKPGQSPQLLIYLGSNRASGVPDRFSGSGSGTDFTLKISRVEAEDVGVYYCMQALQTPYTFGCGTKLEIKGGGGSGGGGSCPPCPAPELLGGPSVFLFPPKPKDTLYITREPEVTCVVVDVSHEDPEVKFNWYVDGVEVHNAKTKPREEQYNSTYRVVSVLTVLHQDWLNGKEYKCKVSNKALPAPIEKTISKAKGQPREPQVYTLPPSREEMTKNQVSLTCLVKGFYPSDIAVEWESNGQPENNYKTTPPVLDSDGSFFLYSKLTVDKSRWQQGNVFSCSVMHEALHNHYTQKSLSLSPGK
light: DIQLTQSPSSLSASVGDRVTITCRASQGISSYLAWYQQKPGKAPKLLIYAASTLQSGVPSRFSGSGSGTDFTLTISSLQPEDFATYYCQQLSSYPLTFGGGTKVEIKRTVAAPSVFIFPPSDEQLKSGTASVVCLLNNFYPREAKVQWKVDNALQSGNSQESVTEQDSKDSTYSLSSTLTLSKADYEKHKVYACEVTHQGLSSPVTKSFNRGEC
notes: Chimeric heavy chain: VH-CH1-linker-scFv(anti-Psl)-linker-CH2-CH3; The Fab is from 7B1 (anti-PcrV); Optimized variant of STS7B15925
As for B1, in test [1], the binding result is “binds”.

B2: anti-PcrV/anti-Psl bispecific antibody STS7B112M (bispecific antibody)
heavy: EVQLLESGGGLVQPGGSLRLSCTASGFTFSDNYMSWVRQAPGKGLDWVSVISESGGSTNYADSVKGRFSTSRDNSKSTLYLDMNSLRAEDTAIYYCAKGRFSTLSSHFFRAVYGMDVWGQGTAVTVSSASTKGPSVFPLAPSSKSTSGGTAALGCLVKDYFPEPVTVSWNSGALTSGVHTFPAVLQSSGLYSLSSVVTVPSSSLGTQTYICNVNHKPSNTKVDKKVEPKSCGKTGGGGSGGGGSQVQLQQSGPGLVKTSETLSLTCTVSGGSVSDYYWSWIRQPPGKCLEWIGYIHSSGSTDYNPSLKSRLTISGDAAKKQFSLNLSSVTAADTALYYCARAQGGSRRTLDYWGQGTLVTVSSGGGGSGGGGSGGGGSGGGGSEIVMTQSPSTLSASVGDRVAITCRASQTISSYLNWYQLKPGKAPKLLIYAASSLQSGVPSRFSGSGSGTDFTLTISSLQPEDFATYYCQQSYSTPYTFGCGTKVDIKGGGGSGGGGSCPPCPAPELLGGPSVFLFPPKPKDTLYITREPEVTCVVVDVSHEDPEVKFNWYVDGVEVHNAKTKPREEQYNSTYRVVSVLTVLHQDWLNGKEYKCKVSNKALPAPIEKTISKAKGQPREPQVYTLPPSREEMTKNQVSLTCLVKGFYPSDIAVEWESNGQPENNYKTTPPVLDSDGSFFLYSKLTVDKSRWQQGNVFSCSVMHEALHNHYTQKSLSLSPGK
light: DIQLTQSPSSLSASVGDRVTITCRASQGISSYLAWYQQKPGKAPKLLIYAASTLQSGVPSRFSGSGSGTDFTLTISSLQPEDFATYYCQQLSSYPLTFGGGTKVEIKRTVAAPSVFIFPPSDEQLKSGTASVVCLLNNFYPREAKVQWKVDNALQSGNSQESVTEQDSKDSTYSLSSTLTLSKADYEKHKVYACEVTHQGLSSPVTKSFNRGEC
notes: Chimeric heavy chain: 7B1 VH-CH1-linker-scFv(anti-Psl 3F12)-linker-CH2-CH3
Consider B2, for which, in test [1], the binding result is “binds”.

B3: anti-PcrV/anti-Psl bispecific antibody STS7B159S (bispecific antibody)
heavy: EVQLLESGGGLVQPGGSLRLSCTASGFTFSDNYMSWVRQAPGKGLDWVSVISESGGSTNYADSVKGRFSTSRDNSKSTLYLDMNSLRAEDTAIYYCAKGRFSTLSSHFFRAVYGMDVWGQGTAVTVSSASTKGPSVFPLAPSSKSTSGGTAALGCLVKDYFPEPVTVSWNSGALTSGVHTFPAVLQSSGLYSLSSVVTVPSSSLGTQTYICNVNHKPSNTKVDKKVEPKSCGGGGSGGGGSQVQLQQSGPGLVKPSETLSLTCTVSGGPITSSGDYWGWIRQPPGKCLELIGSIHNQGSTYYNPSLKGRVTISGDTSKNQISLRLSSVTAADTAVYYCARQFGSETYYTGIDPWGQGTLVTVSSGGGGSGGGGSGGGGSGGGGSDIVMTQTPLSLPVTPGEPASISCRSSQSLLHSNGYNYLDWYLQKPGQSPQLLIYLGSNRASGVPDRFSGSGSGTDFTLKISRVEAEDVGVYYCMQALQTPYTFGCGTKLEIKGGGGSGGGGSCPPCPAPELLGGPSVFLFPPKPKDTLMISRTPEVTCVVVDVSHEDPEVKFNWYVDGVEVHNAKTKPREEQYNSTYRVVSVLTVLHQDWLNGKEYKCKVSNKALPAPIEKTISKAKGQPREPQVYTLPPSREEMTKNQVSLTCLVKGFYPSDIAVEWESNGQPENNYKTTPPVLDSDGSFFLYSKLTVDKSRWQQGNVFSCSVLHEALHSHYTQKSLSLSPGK
light: DIQLTQSPSSLSASVGDRVTITCRASQGISSYLAWYQQKPGKAPKLLIYAASTLQSGVPSRFSGSGSGTDFTLTISSLQPEDFATYYCQQLSSYPLTFGGGTKVEIKRTVAAPSVFIFPPSDEQLKSGTASVVCLLNNFYPREAKVQWKVDNALQSGNSQESVTEQDSKDSTYSLSSTLTLSKADYEKHKVYACEVTHQGLSSPVTKSFNRGEC
notes: also called STS7B1595
By Kd is commonly meant the concentration at which binding is half-saturated. A higher Kd goes with lower affinity. As a reminder, the koff is a measure of how fast the partners let go of each other. A lower koff goes with a long-lived complex. In general, kon refers to a measure of how fast the partners come together. For the molecule B3, in test [2], the Kd turned out to be 0.179 nM, the koff stood at 3.13e-05 s⁻¹ and the kon amounted to 174000 M⁻¹ s⁻¹.

B4: anti-PcrV/anti-Psl bispecific antibody STS7B15921M (bispecific antibody)
heavy: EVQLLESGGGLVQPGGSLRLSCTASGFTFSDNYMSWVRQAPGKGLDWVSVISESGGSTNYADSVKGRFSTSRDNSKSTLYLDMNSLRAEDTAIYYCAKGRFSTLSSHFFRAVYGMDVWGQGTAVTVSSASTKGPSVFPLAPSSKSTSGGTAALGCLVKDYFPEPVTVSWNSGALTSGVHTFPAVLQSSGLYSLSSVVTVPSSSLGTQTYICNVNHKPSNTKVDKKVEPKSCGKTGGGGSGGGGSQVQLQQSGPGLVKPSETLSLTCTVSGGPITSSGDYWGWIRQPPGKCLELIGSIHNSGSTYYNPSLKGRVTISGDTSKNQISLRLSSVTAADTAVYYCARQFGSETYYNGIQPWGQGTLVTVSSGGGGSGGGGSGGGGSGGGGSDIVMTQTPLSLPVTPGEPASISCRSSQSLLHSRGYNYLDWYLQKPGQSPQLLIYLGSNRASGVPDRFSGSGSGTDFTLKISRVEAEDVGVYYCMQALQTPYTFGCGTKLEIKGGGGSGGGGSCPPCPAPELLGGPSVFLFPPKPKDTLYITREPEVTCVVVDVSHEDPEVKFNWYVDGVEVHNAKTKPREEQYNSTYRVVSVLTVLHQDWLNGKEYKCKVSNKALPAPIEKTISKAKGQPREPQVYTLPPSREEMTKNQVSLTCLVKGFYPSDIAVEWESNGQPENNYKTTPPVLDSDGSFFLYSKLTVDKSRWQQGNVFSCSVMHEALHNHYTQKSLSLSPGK
light: DIQLTQSPSSLSASVGDRVTITCRASQGISSYLAWYQQKPGKAPKLLIYAASTLQSGVPSRFSGSGSGTDFTLTISSLQPEDFATYYCQQLSSYPLTFGGGTKVEIKRTVAAPSVFIFPPSDEQLKSGTASVVCLLNNFYPREAKVQWKVDNALQSGNSQESVTEQDSKDSTYSLSSTLTLSKADYEKHKVYACEVTHQGLSSPVTKSFNRGEC
notes: Chimeric heavy chain: 7B1 VH-CH1-linker-scFv(anti-Psl P5921)-linker-CH2-CH3
On to B4, for which, in test [1], the binding result was “binds”.

B5: anti-PcrV/anti-Psl bispecific antibody STS7B11201M (bispecific antibody)
heavy: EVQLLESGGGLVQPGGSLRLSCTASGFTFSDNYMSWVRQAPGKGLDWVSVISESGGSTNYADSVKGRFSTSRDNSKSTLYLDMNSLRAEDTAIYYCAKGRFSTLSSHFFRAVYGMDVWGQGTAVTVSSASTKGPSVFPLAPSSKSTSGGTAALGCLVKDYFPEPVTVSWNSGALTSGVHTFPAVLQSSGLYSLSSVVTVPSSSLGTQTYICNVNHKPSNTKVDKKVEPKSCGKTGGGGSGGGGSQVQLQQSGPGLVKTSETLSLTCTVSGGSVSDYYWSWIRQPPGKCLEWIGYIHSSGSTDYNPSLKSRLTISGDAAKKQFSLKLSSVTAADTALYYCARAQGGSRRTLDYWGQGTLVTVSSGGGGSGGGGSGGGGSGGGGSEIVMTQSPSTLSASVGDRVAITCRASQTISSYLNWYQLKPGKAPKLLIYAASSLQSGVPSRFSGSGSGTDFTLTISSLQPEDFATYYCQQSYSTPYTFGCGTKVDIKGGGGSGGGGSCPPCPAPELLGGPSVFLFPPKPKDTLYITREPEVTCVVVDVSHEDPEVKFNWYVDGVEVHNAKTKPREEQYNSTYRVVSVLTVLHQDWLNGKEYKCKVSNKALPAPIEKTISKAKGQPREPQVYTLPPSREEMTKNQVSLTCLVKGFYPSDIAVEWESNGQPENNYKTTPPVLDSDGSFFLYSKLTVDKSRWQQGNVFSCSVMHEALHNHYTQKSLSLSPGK
light: DIQLTQSPSSLSASVGDRVTITCRASQGISSYLAWYQQKPGKAPKLLIYAASTLQSGVPSRFSGSGSGTDFTLTISSLQPEDFATYYCQQLSSYPLTFGGGTKVEIKRTVAAPSVFIFPPSDEQLKSGTASVVCLLNNFYPREAKVQWKVDNALQSGNSQESVTEQDSKDSTYSLSSTLTLSKADYEKHKVYACEVTHQGLSSPVTKSFNRGEC
On to B5, for which the binding result in test [1] is given as “binds”.

B6: anti-PcrV/anti-Psl bispecific antibody STS7B11201S (bispecific antibody)
heavy: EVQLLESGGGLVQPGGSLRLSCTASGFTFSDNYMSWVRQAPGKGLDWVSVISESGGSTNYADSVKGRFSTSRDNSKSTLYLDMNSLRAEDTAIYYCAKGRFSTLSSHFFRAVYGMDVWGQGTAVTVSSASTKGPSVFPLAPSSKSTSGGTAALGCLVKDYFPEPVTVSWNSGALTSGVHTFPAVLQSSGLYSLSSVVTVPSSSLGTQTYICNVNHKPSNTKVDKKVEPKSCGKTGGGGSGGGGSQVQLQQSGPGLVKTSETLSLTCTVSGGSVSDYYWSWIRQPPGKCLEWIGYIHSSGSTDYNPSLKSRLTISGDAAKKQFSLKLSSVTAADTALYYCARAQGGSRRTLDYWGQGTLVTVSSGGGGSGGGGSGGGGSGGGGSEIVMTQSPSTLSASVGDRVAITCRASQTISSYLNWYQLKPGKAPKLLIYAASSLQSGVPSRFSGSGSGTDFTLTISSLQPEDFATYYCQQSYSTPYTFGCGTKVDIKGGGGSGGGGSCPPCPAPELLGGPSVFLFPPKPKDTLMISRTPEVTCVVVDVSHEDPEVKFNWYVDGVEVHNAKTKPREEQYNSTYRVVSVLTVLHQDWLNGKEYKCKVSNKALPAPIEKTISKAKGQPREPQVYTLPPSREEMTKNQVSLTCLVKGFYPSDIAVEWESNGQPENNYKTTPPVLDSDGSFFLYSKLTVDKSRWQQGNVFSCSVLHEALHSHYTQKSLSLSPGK
light: DIQLTQSPSSLSASVGDRVTITCRASQGISSYLAWYQQKPGKAPKLLIYAASTLQSGVPSRFSGSGSGTDFTLTISSLQPEDFATYYCQQLSSYPLTFGGGTKVEIKRTVAAPSVFIFPPSDEQLKSGTASVVCLLNNFYPREAKVQWKVDNALQSGNSQESVTEQDSKDSTYSLSSTLTLSKADYEKHKVYACEVTHQGLSSPVTKSFNRGEC
notes: also called STS7B112015
As for B6, in test [2], the affinity, expressed as Kd, was 0.265 nM; the koff came out at 4.52e-05 s⁻¹; the on-rate constant (kon) worked out at 170000 M⁻¹ s⁻¹.

B7: anti-PcrV/anti-Psl bispecific antibody STS7B1H924M (bispecific antibody)
heavy: EVQLLESGGGLVQPGGSLRLSCTASGFTFSDNYMSWVRQAPGKGLDWVSVISESGGSTNYADSVKGRFSTSRDNSKSTLYLDMNSLRAEDTAIYYCAKGRFSTLSSHFFRAVYGMDVWGQGTAVTVSSASTKGPSVFPLAPSSKSTSGGTAALGCLVKDYFPEPVTVSWNSGALTSGVHTFPAVLQSSGLYSLSSVVTVPSSSLGTQTYICNVNHKPSNTKVDKKVEPKSCGKTGGGGSGGGGSQVQLVQSGAEVKKPGASVKVSCKASGDTSTIHSVHWVRQAPGQCLEWMGTIISSGTTTTYAQSFQDRVSMTIDRSTSTGYMELSSLRFEDTAVYYCTTDGTSWGQGTLVTVSSGGGGSGGGGSGGGGSGGGGSDIQLTQSPSSVSASVGDRVTIACRASQGISSWLAWYQQKPGKAPKLLIYHASTLESGVPSRFSGSGSGTDFTLTISSLQPEDFATYYCLQASSLPHTFGCGTKLEIKGGGGSGGGGSCPPCPAPELLGGPSVFLFPPKPKDTLYITREPEVTCVVVDVSHEDPEVKFNWYVDGVEVHNAKTKPREEQYNSTYRVVSVLTVLHQDWLNGKEYKCKVSNKALPAPIEKTISKAKGQPREPQVYTLPPSREEMTKNQVSLTCLVKGFYPSDIAVEWESNGQPENNYKTTPPVLDSDGSFFLYSKLTVDKSRWQQGNVFSCSVMHEALHNHYTQKSLSLSPGK
light: DIQLTQSPSSLSASVGDRVTITCRASQGISSYLAWYQQKPGKAPKLLIYAASTLQSGVPSRFSGSGSGTDFTLTISSLQPEDFATYYCQQLSSYPLTFGGGTKVEIKRTVAAPSVFIFPPSDEQLKSGTASVVCLLNNFYPREAKVQWKVDNALQSGNSQESVTEQDSKDSTYSLSSTLTLSKADYEKHKVYACEVTHQGLSSPVTKSFNRGEC
notes: Chimeric heavy chain: 7B1 VH-CH1-linker-scFv(anti-Psl 7H924)-linker-CH2-CH3
On to B7, for which, in test [1], the binding result is given as “binds”.

B8: anti-PcrV antibody 7B1 (antibody, V domains shown)
VH: EVQLLESGGGLVQPGGSLRLSCTASGFTFSDNYMSWVRQAPGKGLDWVSVISESGGSTNYADSVKGRFSTSRDNSKSTLYLDMNSLRAEDTAIYYCAKGRFSTLSSHFFRAVYGMDVWGQGTAVTVSS
VL: DIQLTQSPSSLSASVGDRVTITCRASQGISSYLAWYQQKPGKAPKLLIYAASTLQSGVPSRFSGSGSGTDFTLTISSLQPEDFATYYCQQLSSYPLTFGGGTKVEIK
notes: Monospecific antibody, optimized from the 13-42 lead
In test [2], B8 came in with a Kd of 0.335 nM, a koff of 4.82e-05 s⁻¹ and a kon of 144000 M⁻¹ s⁻¹.

For the origin of these results see US20240002482A1 (BEIJING SOLOBIO GENETECHNOLOGY, published 2024).
